The text below walks through data of patent US20210340270A1 (Amgen, published 2021).

In experiment [1] the target is murine Jagged-1 stably expressed on 293T cells (mouse, UniProt Q9QXX0 34-1218). In words: cell-based or functional assay.
Experiment [2] concerns the target human Jagged-1 expressed on transfected 293 / 293T cells (human, UniProt P78504 34-1218). The experiment can be described thus: cell-based or functional assay.
The target of experiment [3] is human and rat Jagged-1 (recombinant purified Notch ligands in the ELISA). The experiment can be described thus: direct binding ELISA on recombinant purified Notch ligands. (In general: ELISA stands for enzyme-linked immunosorbent assay.)
Experiment [4] concerns the target T1, Recombinant Human DLL4 His tag (R&D Systems Cat #: 1506-D4-050) (human, UniProt Q9NR61 27-524).
T1 construct: Bought construct; also called human Deltalike 4; not shown: His tag
In words: ELISA, 1 ug/ml ligand coated on the plate, 15D11.1 titrated, absorbance 450 nm. How it is done: (§1) 15D11.1 was tested for binding to recombinant purified Notch ligands; human Jagged1 Fc (Recombinant Human Jagged 1 Fc chimera—R&D Systems Cat #: 1277-M-050), human Jagged1 His (Human JAG1/Jagged1 His Tag Sino Biological Cat #: 11648-H08H), rat Jagged1 Fc (Recombinant Rat Jagged 1 Fc chimera—R&D Systems—Cat #: 599-JG-050), human Jagged2 (Recombinant Human Jagged 2 Fc chimera—R&D Systems Cat #: 1726-JG-050), murine Jagged2 (Recombinant Mouse Jagged 2 Fc chimera—R&D Systems Cat #: 4748-JG-050), murine Delta-like 1 (Recombinant Mouse DLL1 His tag—Sino Biological Cat #: 50522-M08H-50), human Deltalike 4 (Recombinant Human DLL4 His tag—R&D Systems—Cat #: 1506-D4-050) and murine Deltalike 4 (Recombinant Mouse DLL4 His tag—R&D Systems—Cat #: 1389-D4-050) using a standard enzyme-linked immunosorbent assay (ELISA). 1 ug/ml of Notch ligand protein (as indicated) in PBS, pH7.4, was coated onto ELISA plates (Nunc Maxisorp) at 4° C. overnight. Plates were blocked with Casein blocker in PBS (Pierce) for one hour at room temperature. Serial 2-fold dilutions of 15D11.1
(§2) in PBST buffer (PBT buffer (PBS+0.05% (v/v) Tween 20) with 0.5% (w/v) BSA) were added to the plates and incubated for one hour at room temperature. The plates were then washed with PBST and bound antibodies were detected with peroxidase-conjugated goat anti-human Fab specific IgG (Sigma). TMB substrate (3,3′,5,5′-tetramethylbenzidine) was used and absorbance at 450 nm was read using a standard ELISA plate reader. Absorbance was plotted against concentrations of 15D11.1 in FIGS. 8A and 8B.

Experiment [5] has as its target T2, Recombinant Mouse DLL4 His tag (R&D Systems Cat #: 1389-D4-050) (mouse, UniProt Q9JI71 28-525).
T2 construct: Bought construct; also called murine Deltalike 4; not shown: His tag
Described as above. How it is done:
as §1, §2

Experiment [6] addresses T3, Recombinant Human Jagged 2 Fc chimera (R&D Systems Cat #: 1726-JG-050) (human, UniProt Q9Y219 27-1080).
T3 construct: Bought construct; not shown: Fc part and any linker of the bought chimera not described
The description is as above. How it is done: as §1, §2

In experiment [7] the target is T4, Recombinant Mouse Jagged 2 Fc chimera (R&D Systems Cat #: 4748-JG-050) (mouse, UniProt Q9QYE5 27-1082).
T4 construct: Bought construct; also called murine Jagged2; not shown: Fc part and any linker of the bought chimera not described
The description is as above. On the procedure:
as §1, §2

The target of experiment [8] is T5, Recombinant Mouse DLL1 His tag (Sino Biological Cat #: 50522-M08H-50) (mouse, UniProt Q61483 18-540).
T5 construct: Bought construct; also called murine Delta-like 1; not shown: His tag
The experiment is described as above. How it is done:
as §1, §2

Experiment [9] addresses T6, recombinant human Jagged1 extracellular domain (Met 1-Ser 1046), fused with a polyhistidine tag at the … (human, UniProt P78504 34-1046).
T6 construct: Bought protein; also called hJagged1; soluble recombinant hJagged1; not shown: C-terminal polyhistidine tag
In words: Octet Red96 BLI; mAb captured on AHC anti-HuFc biosensors, soluble hJagged1 as analyte; mean of 3 experiments. On the procedure: (§3) The affinity of the soluble recombinant hJagged1 was determined in Octet platform (Octet Red96) under the manufactures recommended kinetic measurement settings. Briefly, hJagged1 was diluted 1 to 3 from 150 nM to 0.5 nM in Octet buffer (10 mM Tris base, 150 mM NaCl, 1 mM CaCl2, 0.1 mg/ml BSA, 0.1% Triton X100) and 60 ul of this serial diluted samples were taken in 384 well tilted bottom (TW384) black polypropylene microplate (Forte Bio, Cat #18-0019) (sample plate). 3 ug/ml of anti-hJagged1 mAb 15D11.1 present in 60 ul in sample plate was used and captured on AHC—anti-HuFc (Kinetic) biosensors (cat #18-5060). A sample with buffer alone is used as a control.

In experiment [10] the target is T7, Recombinant Human Jagged 1 Fc chimera (R&D Systems Cat #: 1277-M-050) (human, UniProt P78504 32-1046).
T7 construct: also called hJAG1 Fc; not shown: Fc part and any linker of the bought chimera not described
The experiment can be described thus: direct binding ELISA; 1 ug/ml ligand coated, antibody titrated, anti-human Fab-HRP detection (printed as IC50). How it is done:
as §1, §2

The target of experiment [11] is T8, Human JAG1/Jagged1 His Tag (Sino Biological Cat #: 11648-H08H) (human, UniProt P78504 34-1046).
T8 construct: also called human Jagged1 His; hJAG1 His; not shown: His tag
The description is as above. On the procedure:
as §1, §2

Experiment [12] concerns the target T9, Recombinant Rat Jagged 1 Fc chimera (R&D Systems Cat #: 599-JG-050) (rat, UniProt Q63722 32-1046).
T9 construct: Bought construct; also called rJAG1; not shown: Fc part and any linker of the bought chimera not described
The experiment is described as above. How it is done: as §1, §2

Experiment [13] concerns the target T6, recombinant human Jagged1 extracellular …. In words: Octet Red96 BLI; mAb captured on AHC anti-HuFc biosensors, soluble hJagged1 as analyte; mean of 3 experiments (same KD as r8c2, in nM). On the procedure: as §3
On the technique in general: Biolayer interferometry detects binding as a change in optical thickness at a sensor tip.

The target of experiment [14] is T7, Recombinant Human Jagged 1 Fc chimera …. The experiment can be described thus: ELISA, 1 ug/ml ligand coated on the plate, 15D11.1 titrated, absorbance 450 nm; single experiment shown (the text prints only a mean of n = 3). On the procedure:
as §1, with “1 ug/ml of Notch ligand protein (as indicated) in PBS, pH7.4, was coated onto ELISA plates (Nunc Maxisorp) at 4° C. overnight. Plates were blocked with Casein blocker in PBS (Pierce) for one hour at room temperature. Serial 2-fold dilutions of 15D11.1” left out
as §2

Sequence of human Jagged-1 expressed on transfected 293 / 293T cells (P78504 34-1218 P227R/N498D limits assumed): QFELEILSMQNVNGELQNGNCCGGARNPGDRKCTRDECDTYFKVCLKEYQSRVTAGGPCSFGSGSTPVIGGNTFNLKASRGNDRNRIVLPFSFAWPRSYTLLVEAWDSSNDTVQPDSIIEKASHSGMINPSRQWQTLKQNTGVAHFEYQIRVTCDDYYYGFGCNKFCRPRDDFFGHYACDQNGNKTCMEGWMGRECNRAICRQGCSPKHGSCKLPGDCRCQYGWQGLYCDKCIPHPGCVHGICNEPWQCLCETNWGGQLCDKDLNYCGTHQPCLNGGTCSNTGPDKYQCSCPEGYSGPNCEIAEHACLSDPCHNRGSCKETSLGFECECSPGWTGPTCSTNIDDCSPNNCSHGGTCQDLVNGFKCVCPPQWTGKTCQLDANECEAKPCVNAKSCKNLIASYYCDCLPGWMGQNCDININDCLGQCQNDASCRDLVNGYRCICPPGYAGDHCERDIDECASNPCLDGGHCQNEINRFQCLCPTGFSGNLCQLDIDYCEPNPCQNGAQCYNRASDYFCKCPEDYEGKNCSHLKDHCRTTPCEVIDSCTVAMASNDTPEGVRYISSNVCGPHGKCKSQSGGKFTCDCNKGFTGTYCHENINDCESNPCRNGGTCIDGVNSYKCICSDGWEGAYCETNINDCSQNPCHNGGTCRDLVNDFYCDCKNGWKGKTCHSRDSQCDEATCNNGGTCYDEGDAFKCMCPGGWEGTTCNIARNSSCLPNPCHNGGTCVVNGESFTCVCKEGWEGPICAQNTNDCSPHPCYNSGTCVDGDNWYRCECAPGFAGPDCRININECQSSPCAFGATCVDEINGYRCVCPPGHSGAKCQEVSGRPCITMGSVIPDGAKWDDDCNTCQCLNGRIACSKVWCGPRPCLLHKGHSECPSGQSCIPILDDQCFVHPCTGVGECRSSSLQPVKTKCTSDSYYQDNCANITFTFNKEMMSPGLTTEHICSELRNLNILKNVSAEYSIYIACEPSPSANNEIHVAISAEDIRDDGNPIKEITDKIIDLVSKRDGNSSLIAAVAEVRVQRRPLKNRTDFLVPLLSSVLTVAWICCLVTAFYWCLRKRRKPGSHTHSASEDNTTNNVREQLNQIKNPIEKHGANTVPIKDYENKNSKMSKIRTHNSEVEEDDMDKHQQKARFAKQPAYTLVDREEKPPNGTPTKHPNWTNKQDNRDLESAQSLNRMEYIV
Sequence of murine Jagged-1 stably expressed on 293T cells (Q9QXX0 34-1218): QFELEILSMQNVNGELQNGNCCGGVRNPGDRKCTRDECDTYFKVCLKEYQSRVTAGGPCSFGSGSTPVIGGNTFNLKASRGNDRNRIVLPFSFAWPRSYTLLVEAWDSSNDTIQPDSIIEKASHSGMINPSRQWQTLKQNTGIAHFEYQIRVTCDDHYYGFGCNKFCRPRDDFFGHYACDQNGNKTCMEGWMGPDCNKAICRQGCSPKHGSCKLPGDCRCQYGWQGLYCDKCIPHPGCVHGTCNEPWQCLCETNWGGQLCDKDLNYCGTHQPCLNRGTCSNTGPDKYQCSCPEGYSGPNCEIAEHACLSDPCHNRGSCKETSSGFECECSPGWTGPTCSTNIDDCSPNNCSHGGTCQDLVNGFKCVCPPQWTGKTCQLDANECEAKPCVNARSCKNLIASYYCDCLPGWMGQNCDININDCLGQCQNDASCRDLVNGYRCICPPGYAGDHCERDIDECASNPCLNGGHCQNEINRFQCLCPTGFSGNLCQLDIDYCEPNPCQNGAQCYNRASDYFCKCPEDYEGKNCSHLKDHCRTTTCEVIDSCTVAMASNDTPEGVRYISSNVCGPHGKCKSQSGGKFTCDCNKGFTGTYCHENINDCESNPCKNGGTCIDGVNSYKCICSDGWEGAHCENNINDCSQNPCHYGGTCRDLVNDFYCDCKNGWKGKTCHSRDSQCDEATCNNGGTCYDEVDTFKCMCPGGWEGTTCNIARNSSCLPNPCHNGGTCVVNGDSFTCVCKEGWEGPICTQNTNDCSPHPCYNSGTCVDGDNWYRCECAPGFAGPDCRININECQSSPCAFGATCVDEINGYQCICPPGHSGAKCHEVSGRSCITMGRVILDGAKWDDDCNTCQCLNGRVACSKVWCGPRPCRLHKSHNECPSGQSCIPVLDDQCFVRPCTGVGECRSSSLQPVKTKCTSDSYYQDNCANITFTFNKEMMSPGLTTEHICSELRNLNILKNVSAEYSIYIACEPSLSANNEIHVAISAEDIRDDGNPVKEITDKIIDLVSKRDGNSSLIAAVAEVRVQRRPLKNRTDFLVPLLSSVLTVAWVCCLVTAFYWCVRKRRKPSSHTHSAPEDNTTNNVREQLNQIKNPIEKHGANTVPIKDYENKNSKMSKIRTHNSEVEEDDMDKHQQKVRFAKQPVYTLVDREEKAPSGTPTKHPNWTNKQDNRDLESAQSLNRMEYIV
T5 sequence (Q61483 18-540 limits assumed, stated change not applied): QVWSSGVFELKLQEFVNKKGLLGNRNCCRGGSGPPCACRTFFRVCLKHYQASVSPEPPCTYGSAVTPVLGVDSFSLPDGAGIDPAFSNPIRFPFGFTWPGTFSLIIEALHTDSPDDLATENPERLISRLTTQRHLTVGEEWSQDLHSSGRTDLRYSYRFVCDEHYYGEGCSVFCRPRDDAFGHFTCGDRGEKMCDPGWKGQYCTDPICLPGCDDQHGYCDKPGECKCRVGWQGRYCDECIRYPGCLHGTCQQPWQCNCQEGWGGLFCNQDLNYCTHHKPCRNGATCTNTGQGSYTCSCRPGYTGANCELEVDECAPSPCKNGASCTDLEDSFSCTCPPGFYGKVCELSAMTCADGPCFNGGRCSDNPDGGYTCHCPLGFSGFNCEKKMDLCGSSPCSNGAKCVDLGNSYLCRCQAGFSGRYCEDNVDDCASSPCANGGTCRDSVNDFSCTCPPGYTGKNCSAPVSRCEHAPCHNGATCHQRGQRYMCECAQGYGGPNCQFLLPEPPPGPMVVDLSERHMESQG
T2 sequence (Q9JI71 28-525 limits assumed): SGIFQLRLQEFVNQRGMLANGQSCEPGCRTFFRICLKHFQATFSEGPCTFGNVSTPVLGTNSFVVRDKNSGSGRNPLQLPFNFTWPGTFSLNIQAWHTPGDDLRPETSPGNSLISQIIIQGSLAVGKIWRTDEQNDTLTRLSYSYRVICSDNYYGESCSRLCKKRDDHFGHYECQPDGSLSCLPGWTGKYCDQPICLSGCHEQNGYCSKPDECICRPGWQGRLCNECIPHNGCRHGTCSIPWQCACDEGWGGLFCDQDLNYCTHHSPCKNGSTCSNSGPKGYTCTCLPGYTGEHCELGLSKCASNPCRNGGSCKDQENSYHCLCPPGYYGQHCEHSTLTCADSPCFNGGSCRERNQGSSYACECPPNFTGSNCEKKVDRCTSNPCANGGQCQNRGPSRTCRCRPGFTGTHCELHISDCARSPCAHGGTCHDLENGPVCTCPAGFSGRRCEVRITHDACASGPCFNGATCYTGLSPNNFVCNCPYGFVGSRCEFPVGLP
T1 sequence (Q9NR61 27-524 limits assumed): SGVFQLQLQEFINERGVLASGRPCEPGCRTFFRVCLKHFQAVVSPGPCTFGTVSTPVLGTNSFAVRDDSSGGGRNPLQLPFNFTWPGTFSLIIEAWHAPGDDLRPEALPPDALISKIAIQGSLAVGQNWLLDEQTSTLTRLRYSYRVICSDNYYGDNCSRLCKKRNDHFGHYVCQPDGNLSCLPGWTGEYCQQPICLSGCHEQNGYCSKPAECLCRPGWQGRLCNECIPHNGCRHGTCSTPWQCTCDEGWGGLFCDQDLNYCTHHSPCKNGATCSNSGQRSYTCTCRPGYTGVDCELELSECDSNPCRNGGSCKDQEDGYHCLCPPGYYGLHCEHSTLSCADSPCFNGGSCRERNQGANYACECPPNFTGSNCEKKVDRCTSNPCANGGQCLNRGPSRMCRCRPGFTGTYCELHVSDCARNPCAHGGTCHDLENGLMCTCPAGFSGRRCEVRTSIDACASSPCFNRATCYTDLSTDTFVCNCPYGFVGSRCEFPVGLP
T4 sequence (Q9QYE5 27-1082, change not shown): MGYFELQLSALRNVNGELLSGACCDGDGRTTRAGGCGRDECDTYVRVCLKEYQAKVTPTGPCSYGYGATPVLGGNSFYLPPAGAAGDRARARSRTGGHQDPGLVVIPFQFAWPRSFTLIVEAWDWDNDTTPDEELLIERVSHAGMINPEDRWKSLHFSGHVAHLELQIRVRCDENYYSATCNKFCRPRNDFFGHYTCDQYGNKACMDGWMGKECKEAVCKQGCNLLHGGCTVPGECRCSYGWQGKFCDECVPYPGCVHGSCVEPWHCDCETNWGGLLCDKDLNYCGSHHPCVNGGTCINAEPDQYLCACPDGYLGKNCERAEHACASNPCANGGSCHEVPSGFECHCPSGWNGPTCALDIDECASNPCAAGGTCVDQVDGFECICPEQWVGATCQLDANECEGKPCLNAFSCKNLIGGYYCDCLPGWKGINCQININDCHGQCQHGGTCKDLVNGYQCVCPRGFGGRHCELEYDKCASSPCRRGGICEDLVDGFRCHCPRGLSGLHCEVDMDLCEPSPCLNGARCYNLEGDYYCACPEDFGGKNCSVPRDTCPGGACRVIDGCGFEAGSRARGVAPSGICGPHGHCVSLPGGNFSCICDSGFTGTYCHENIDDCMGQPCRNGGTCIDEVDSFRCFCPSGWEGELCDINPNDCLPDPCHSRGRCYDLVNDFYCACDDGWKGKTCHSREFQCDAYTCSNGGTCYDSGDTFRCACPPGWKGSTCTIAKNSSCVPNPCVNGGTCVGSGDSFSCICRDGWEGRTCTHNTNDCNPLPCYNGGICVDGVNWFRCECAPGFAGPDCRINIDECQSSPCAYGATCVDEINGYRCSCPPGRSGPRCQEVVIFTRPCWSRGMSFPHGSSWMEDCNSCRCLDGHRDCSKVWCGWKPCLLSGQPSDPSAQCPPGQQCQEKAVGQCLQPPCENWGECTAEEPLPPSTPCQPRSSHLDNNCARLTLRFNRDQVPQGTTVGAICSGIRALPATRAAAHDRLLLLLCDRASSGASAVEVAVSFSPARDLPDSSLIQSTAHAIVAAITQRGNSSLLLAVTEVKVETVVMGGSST

B1: anti-hJagged1 mAb 15D11.1 (antibody, V domains shown)
VH: QVTLKESGPVLVKPTETLTLTCTVSGFSLSNAEMGVSWIRQPPGKALEWLAHLFSNDEKSYSTSLKSRLTISKDTSKSQVVLTMTDLDPVDTATYYCARSFNWNYDFDYWGQGTLVTVSS
VL: QSALTQPASVSGSPGQSITISCTGTSSAVGGHNFVSWYQQYPGKAPKLMIYEVSNRPSGVSTRFSGSKSGNTASLTISGLQAEDEADYYCSSYTSSSTWVFGGGTRLTVL
notes: Fully human monoclonal antibody from XenoMouse (XMG2-KL / XMG4-KL) hybridomas; also called iPS:480499; anti-Jag-1 15D11.1
Broadly, the IC50 is the concentration needed to halve the response being measured. As a reminder, the koff is the rate constant with which the complex falls apart. In general, kon refers to the second-order rate constant of association. The term Kd denotes the free concentration of one partner at which half of the binding sites on the other are occupied at equilibrium, for simple one-to-one binding. As a reminder, the EC50 (read off the curve) is the concentration giving half of the maximal effect. As for B1, in [1], the “IC50, murine Jagged-1 induced murine Notch1 activation co-culture assay (7xCSL firefly luciferase reporter in 293T/murine Notch1 cells)” value was 7.72 nM. In [1], the “avg IC50, murine Jagged-1 induced murine Notch1 activation co-culture assay (7xCSL firefly luciferase reporter in 293T/murine Notch1 cells)” value was 9 nM. The “IC50, human Jagged-1 induced human Notch2 activation co-culture assay (12xCSL firefly luciferase reporter in SK-MEL-28 cells)” value in [2] is 1.69 nM. Moreover, the “avg IC50, human Jagged-1 induced human Notch2 activation co-culture assay (12xCSL firefly luciferase reporter in SK-MEL-28 cells)” value in [2] worked out at 2.31 nM. Besides, the concentration for half-maximal inhibition (IC50) was 0.3 to 0.9 nM in experiment [3], 0.8 nM in experiment [10], 0.39 nM in [11] and 0.51 nM in [12]. Moreover, the binding result in [4], in experiment [5], in experiment [6], in experiment [7] and in experiment [8] was “no binding (tested: about log 1.8 nM (about 60 nM))” throughout. Moreover, the off-rate (koff) in experiment [9] amounted to 0.000189 s⁻¹. For the same molecule, in experiment [9], the on-rate constant (kon) is 331000 M⁻¹ s⁻¹. The dissociation constant (Kd) in [13] was determined as 0.61 nM. In [14], the half-maximal effective concentration (EC50 (read off the curve)) is roughly 0.4 nM.
